Test results as given in US20140031259A1.

Key:
[1] = molecular target: AKT1 kinase domain (WT) fused to the Gal4 DNA binding domain (UniProt P04386); assay: cell-based or functional assay
[2] = molecular target: AKT1 D323H kinase domain fused to the Gal4 DNA binding domain (UniProt P04386); assay: cell-based or functional assay

Row | Substance | luciferase reporter interaction signal in mammalian 2-hybrid assay, compared to WT-PH/WT-KD or E17K-PH/WT-KD [1] | luciferase reporter interaction signal in mammalian 2-hybrid assay, compared to WT-PH/WT-KD or E17K-PH/WT-KD [2]
1 | AKT1 L52R PH domain fused to the VP16 activation domain (from UniProt P31749 5-108) | 50 % reduction | –
2 | AKT1 PH domain (WT) fused to the VP16 activation domain (from UniProt P31749 5-108) | – | 50 % reduction
